Assay [1] has as its system normal baboon plasma (NBP). Description: aPTT and PT in normal baboon plasma in vitro. It is filed as biochemical. Particulars: 0-40 nM.
The target of assay [2] is T1, Human FXI in plasma (Homo sapiens, UniProt P03951).
T1 construct: antibody 1A6 recognizes Factor XI in human and non-human primate plasma; from tissue; host or cells: normal human plasma (A4); whole human blood or reconstituted FXII-deficient human blood (A9)
Description: Western blot of human plasma. It is filed as binding. An excerpt: Results from a Western Blot study corroborating that anti-factor XI monoclonal antibody 1A6 recognizes Factor XI in human and non-human primate plasma is shown in FIG. 7A.
On the technique in general: In western blotting, separated proteins are transferred to a membrane and probed.

For assay [3], the system named is third apple (A3) domain of the FXI heavy chain. Description: Immunoblotting of FXI and recombinant FXI/prekallikrein chimeras. It is filed as binding, human. To be noted: for FXI domain recognized: immunoblotting of recombinant FXI/prekallikrein chimeras. How it is done: Comparative binding studies for monoclonal antibody 1A6 were conducted using FXI, Prekallikrein (PK), and FXI/PK chimeras involving either the substitution FXI domains with PK domains (FIG. 9) or the substitution of PK domains with FXI domains (FIG. 10).

Assay [4] deals with T2, FXI (Homo sapiens, UniProt P03951).
T2 construct: antibody 1A6 recognizes Factor XI in human and non-human primate plasma; from tissue; host or cells: normal human plasma (A4); whole human blood or reconstituted FXII-deficient human blood (A9)
Description: Flow chamber coagulation studies (blood perfused over collagen). It is filed as cell-based. How it is done: Glass capillary tubes were coated with 100 μg/ml Horm collagen (Nycomed Arzenmittel, Munich, Germany). Whole human blood was collected into corn trypsin inhibitor (CTI, 40 μg/ml), discarding the first 1 ml to limit any activation of the coagulation pathway, and then perfused through the tubes at a shear rate of 265 s^−1 for 10 min. […] In separate experiments, washed platelets and RBCs were processed as described (McCarty et al. (2006) J. Thromb. Haemost. 4:1367-1378), and then mixed with FXII deficient human plasma (<1% FXII, Haematologic Technologies, Essex Junction, Vt.) to reach a hematocrit of 40% and platelet count of 300×10^3/μl. […] Recalcified FXII deficient human plasma without RBCs or platelets was also perfused over collagen. Images were obtained by DIC microscopy after three minutes of perfusion with modified Tyrodes buffer.
When whole human blood, which was anticoagulated with CTI to block the function of FXIIa, was perfused over collagen at arterial shear (265 s^−1), platelets were deposited in large aggregates which became enveloped by forming fibrin strands (FIG. 7B). […] The outcome was similar when using reconstituted FXII deficient blood, with or without CTI. […] No fibrin was formed when recalcified FXII deficient human plasma was perfused over collagen. For these experiments, human whole blood, anticoagulated with CTI (40 μg/ml) to inhibit FXIIa, or reconstituted FXII deficient human blood was perfused through collagen coated capillary tubes at a shear rate of 265 s^−1 for 10 minutes. […] Images were obtained via Kohler-illuminated Nomarski differential interference contrast (DIC) microscopy with a Zeiss Axiovert 200M microscope using a Zeiss 63× oil immersion 1.40 NA plan-apochromat lens. Images were captured following three minutes of perfusion with modified Tyrodes buffer using a Zeiss AxioCam with Slidebook 4.0 (Intelligent Imaging Innovations, Inc., Denver, Colo., USA). All experiments were performed at 37° C. Each image in FIG. 7B is representative of 2-3 experiments.

Assay [5] deals with FXI. Description: FXI procoagulant activity, aPTT and PT after single i.v. bolus in baboons. It is filed as in vivo, baboon. How it is done: The maximum achievable prolongation of the aPTT was about 2.5 fold. FXI:Ag was measured by ELISA using goat anti-human FXI polyclonal capture and detection (horseradish peroxidase conjugated [HRP]) antibodies (Affinity Biologicals, Hamilton, Ontario), which also recognized baboon FXI and its complex with aXIMab. A standard curve was constructed with serial dilutions of NBP, and FXI concentrations were determined in percentage of NBP. Western blots for FXI were performed by size fractionation of 1 μl samples of plasma under non-reducing conditions on 7.5% polyacrylamide-SDS gels, followed by transfer to PVDF membranes. Detection was with a goat-anti-human FXI polyclonal antibody conjugated to HRP and chemiluminescence.
The anticoagulant effect (aPTT) was monitored daily, and thrombosis experiments were performed while the FXI procoagulant activity in the circulating blood was reduced by ≥99%, as assessed by comparing the clotting times to a standard curve generated with FXI deficient human plasma (George King Bio-Medical).

Assay [6] relates to platelet rich plasma. Description: Platelet aggregation in platelet rich plasma in response to ADP and collagen. It is filed as cell-based, baboon. Particulars: platelet rich plasma of treated animals versus control.
The mark [7] stands for this setting: CTI (40 μg/ml) whole human blood, aXIMab 20 μg/ml, collagen, 265 s^-1, 10 min.
[8] abbreviates: FXII-inhibited or deficient human blood under flow (FIG. 7B).

Entries after “also recorded” stand apart in the source; their conditions may differ. Like-named read-outs stand apart in the source and are kept apart here.

B1: aXIMab: neutralizing murine IgG/kappa anti-human FXI monoclonal antibody from hybridoma 1A6; binds A3 domain; VH SEQ ID NO:3, VL SEQ ID NO:5 (antibody, listed as Mus musculus, V domains shown)
VH: QVTLKESGPGILKPSQTLSLTCSFSGFSLSTSGMGVGWIRQPSGKGLEWLAHIWWDDDKYYNPSLKSQLTISKDTSRNQVFLKITSVDAADTATYYCARKRSSVVAHYYAMDYWGQGTSVTVSS
VL: DIVLTQSPASLAVSLGQRATISCKASQSVDYDGDSYLNWYQQKPGQPPKLLIYAASNLESGIPARFSGSGSGTDFTLNIHPVEEEDAATYYCQQSNGDPWTFGGGTKLEIK
With B1, in assay [1], the “prothrombin time (PT)” value is given as “without affecting”. Also, the “activated partial thromboplastin time (aPTT)” value in assay [1] (concentration-dependent) is given as “prolonged”. The results for the “recognition of FXI on Western blot” value in assay [2] and in assay [2] (listed as 1A6) were “single band at 160 kDa” and “recognizes”, respectively. For the same molecule, the “binding to FXI/PK chimeras” value in assay [3] (FXI domains substituted with PK domains (FIG. 9)) is on record as “bound all FXI/PK chimeras except the chimera in which the A3 domain of FXI was substituted with a PK domain”; in assay [3] (PK domains substituted with FXI domains (FIG. 10), listed as 1A6), “bound only to chimeras in which the A3 domain of FXI had been inserted; also recorded: bind only to chimeras in which the A3 domain of FXI had been inserted”. The FXI domain recognized entry was “specifically recognized the third apple (A3) domain” in assay [3] and “bound to an epitope on the FXI A3 domain” in assay [3] (listed as 1A6). In assay [4] (setting [7]), the Fibrin deposition result is listed as “noticeably attenuated”. For the same molecule, in assay [4] (setting [7]), the platelet adhesion entry is given as “modest reduction”. Also, the platelet accumulation result in assay [4] (setting [8]) is listed as “reduced”. Further, in assay [4] (setting [8]), the visible fibrin formation result is recorded as “prevented”. For the same molecule, in assay [4] (reconstituted FXII deficient human blood, with or without CTI, aXIMab 20 μg/ml), the fibrin formation result was “interrupted fibrin formation”. For the same molecule, in assay [5] (2 mg/kg i.v. bolus, one-stage clotting assay), the “day by which all clotting times normalized” value is at most 11 days. Also, the “FXI procoagulant activity inhibited” value in assay [5] (1 hr after infusion, 2 mg/kg i.v. bolus, 4 baboons, range 98.8-99.5%) turned out to be 99.0%. The same molecule displayed a PT in assay [5] (after aXIMab administration, n=11, PBS vehicle 9.0±0.1 sec) of 9.1 ± 0.1 s. The aPTT in assay [5] (after aXIMab administration, control 30.5±0.7 sec) was found to be 65.6 ± 2.0 s. The “PT, differences between groups” value in assay [5] (all baboons) was “no differences”. In addition, the “Platelet aggregation in response to ADP and collagen” value in assay [6] is reported as “unchanged”.
